Results published in patent US20200297834A1.

Tests used:
[1] = molecular target: VEEV capsid (of VEEV TC-83, in infected Vero cells) (Venezuelan equine encephalitis virus, strain TC-83) (UniProt P05674); experiment: confocal microscopy, line scan of z-stack, VEEV TC-83 infected Vero cells, 16 h
[2] = molecular target: VEEV E2 (of VEEV TC-83, in infected Vero cells) (Venezuelan equine encephalitis virus, strain TC-83) (UniProt P05674); experiment: as above

PKCδ (endogenous, Vero cells) gave a Pearson's correlation (co-localization) [1] of 0.771.

For PKCδ (endogenous, Vero cells) (enzyme), the Pearson's correlation (co-localization) [2] was 0.581.
